The supplement of paper PMC9233669
Fewer inactive variants are shown than the library holds.

How the values were obtained:
biotinyl-Val-oxazolone = assay: self-aminoacylation, catalytic enhancement (BVO) (fold over background); higher = more active; k-Seq, kA / k0A0; sequences stand for … in GGGAAUGGAUCCACAUCUACGAAUUC…UUCACUGCAGACUUGACGAAGCUG
In short: (§1)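 Mutagenized RNA pools with a 21-nt variable region (0.43 μM) were reacted with each biotinyl-aminoacyl-oxazolone at 2–1250 μM for 90 minutes at room temperature, in 50 μL HEPES/NaCl/KCl/MgCl2/CaCl2 buffer containing 5% acetonitrile at pH 6.9–7.0. RNA captured on streptavidin was quantified by triplicate qPCR and by Illumina sequencing. The fraction reacted for each sequence was fit to a pseudo-first-order model with bootstrapping, and catalytic enhancement is the median kA divided by the uncatalyzed rate, taken as the low-activity peak of a bimodal Gaussian fit.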

biotinyl-Leu-oxazolone = assay: self-aminoacylation, catalytic enhancement (BLO) (fold over background); higher = more active; k-Seq, kA / k0A0; sequences stand for … in GGGAAUGGAUCCACAUCUACGAAUUC…UUCACUGCAGACUUGACGAAGCUG
In short: as §1

biotinyl-Phe-oxazolone = assay: self-aminoacylation, catalytic enhancement (BFO) (fold over background); higher = more active; k-Seq, kA / k0A0; sequences stand for … in GGGAAUGGAUCCACAUCUACGAAUUC…UUCACUGCAGACUUGACGAAGCUG
In short: as §1

biotinyl-Met-oxazolone = assay: self-aminoacylation, catalytic enhancement (BMO) (fold over background); higher = more active; k-Seq, kA / k0A0; sequences stand for … in GGGAAUGGAUCCACAUCUACGAAUUC…UUCACUGCAGACUUGACGAAGCUG
In short: as §1

biotinyl-Trp-oxazolone = assay: self-aminoacylation, catalytic enhancement (BWO) (fold over background); higher = more active; k-Seq, kA / k0A0; sequences stand for … in GGGAAUGGAUCCACAUCUACGAAUUC…UUCACUGCAGACUUGACGAAGCUG
In short: as §1

biotinyl-Ile-oxazolone = assay: self-aminoacylation, catalytic enhancement (BIO) (fold over background); higher = more active; k-Seq, kA / k0A0; sequences stand for … in GGGAAUGGAUCCACAUCUACGAAUUC…UUCACUGCAGACUUGACGAAGCUG
In short: as §1

Sequence | self-aminoacylation (biotinyl-Val-oxazolone) | self-aminoacylation (biotinyl-Leu-oxazolone) | self-aminoacylation (biotinyl-Phe-oxazolone) | self-aminoacylation (biotinyl-Met-oxazolone) | self-aminoacylation (biotinyl-Trp-oxazolone) | self-aminoacylation (biotinyl-Ile-oxazolone)
AUUACCGUGGUCAUUGAGUGA [Fam2.1 aminoacylation ribozyme variant] | 3.21 | 6 | 28.2 | 5.36 | 7.1 | 3.37
AUUCCCCUAGGUCAUCGGGGG [Fam2.2 aminoacylation ribozyme variant] | 10.2 | 13.3 | 51.6 | 8.39 | 13.6 | 8.54
AUUCUCCUAGGUCAUCGCGUG [Fam2.2 aminoacylation ribozyme variant] | 12.2 | 27.3 | 170 | 20.9 | 20.6 | 11.4
GUUCACCUAGGUCAUCGGCUG [Fam2.2 aminoacylation ribozyme variant] | 1.98 | 2.04 | 7.17 | 1.49 | 1.97 | 1.67
AUUACUCUGGUGAUCGAGUGA [Fam2.1 aminoacylation ribozyme variant] | 2.57 | 5.72 | 21.8 | 5.34 | 6.39 | 2.92
AAGUUUGCUAAUAGUCGCUAC [Fam3.1 aminoacylation ribozyme variant] | 0.697 | 0.476 | 0.82 | 0.57 | 0.666 | 0.54
AUUGACCUCGGUCAUCGGGUG [Fam2.2 aminoacylation ribozyme variant] | 3.69 | 4.55 | 20.3 | 4.12 | 3.78 | 3.05
ACUCACCUACGUCAUCGGGUG [Fam2.2 aminoacylation ribozyme variant] | 4.69 | 7.79 | 57.3 | 6.25 | 6.64 | 3.98
AUUCAUCUACGUCAUCGGGUG [Fam2.2 aminoacylation ribozyme variant] | 3.82 | 8.74 | 53 | 6.12 | 7.17 | 3.69
AUUUCCCUUGUCAUCGAGUGA [Fam2.1 aminoacylation ribozyme variant] | 4.17 | 7.73 | 46 | 7.14 | 8.99 | 3.62
AUUACCCUGCUCAUCGAGCGA [Fam2.1 aminoacylation ribozyme variant] | 0.851 | 1.4 | 0.874 | 1.3 | 0.81 | 1.12
CCUCAUUUCAAGCAAUCGGUC [Fam1B.1 aminoacylation ribozyme variant] | 1.05 | 1.08 | 5.96 | 1.07 | 2.75 | 1.11
AUUCACCUAGGUCUUCUGGUG [Fam2.2 aminoacylation ribozyme variant] | 3.86 | 9.28 | 58.1 | 6.75 | 5.92 | 3.9
CCACACUUCAAGCCAUCGGUC [Fam1B.1 aminoacylation ribozyme variant] | 1.24 | 0.986 | 0.854 | 0.95 | 0.932 | 0.995
AUUCACAUAGGUCAUCGGGCG [Fam2.2 aminoacylation ribozyme variant] | 2.33 | 3.11 | 6.68 | 2.5 | 2.3 | 2.05
AAGUCUGCUAAUAUUCGCAAG [Fam3.1 aminoacylation ribozyme variant] | 1.06 | 1.06 | 2.54 | 1.49 | 1.77 | 1.11
CAACACUUCAAGCAAUCGCUC [Fam1B.1 aminoacylation ribozyme variant] | 1.57 | 2.04 | 0.965 | 1.19 | 1.54 | 1.85
AUUACCCUGCUCAUCGAGUCA [Fam2.1 aminoacylation ribozyme variant] | 0.819 | 0.646 | 0.452 | 0.64 | 0.425 | 0.779
AUUACCCUGUUCAUCGUGUGA [Fam2.1 aminoacylation ribozyme variant] | 3.04 | 6.24 | 43.7 | 6.29 | 8.71 | 3.1
AUUACCCUGGUGAUCGAGAGA [Fam2.1 aminoacylation ribozyme variant] | 0.92 | 0.908 | 0.65 | 1.24 | 0.417 | 1.33
GUUACCCUGGUCAACGAGUGA [Fam2.1 aminoacylation ribozyme variant] | 3.22 | 6.2 | 42.7 | 5.98 | 6.61 | 3.72
CUACUUCAAAUAAACGGUCUG [Fam1A.1 aminoacylation ribozyme variant] | 0.777 | 0.71 | 0.881 | 0.537 | 0.692 | 0.719

Sequence | self-aminoacylation (biotinyl-Val-oxazolone) | self-aminoacylation (biotinyl-Leu-oxazolone) | self-aminoacylation (biotinyl-Phe-oxazolone) | self-aminoacylation (biotinyl-Met-oxazolone) | self-aminoacylation (biotinyl-Trp-oxazolone) | self-aminoacylation (biotinyl-Ile-oxazolone)
CUACUUCAAACAACCGCUCUG [Fam1A.1 aminoacylation ribozyme variant] | 0.769 | 0.547 | 0.457 | 0.774 | 0.619 | 0.776
AGUCACCUAGCUCAUCGGGUG [Fam2.2 aminoacylation ribozyme variant] | 3.12 | 2.79 | 13.9 | 2.42 | 2.81 | 2.6
AUGCACCUAGGUAAUCGGGUG [Fam2.2 aminoacylation ribozyme variant] | 1.94 | 2.31 | 10.9 | 2.56 | 3.25 | 2.07
AAGUUUGCUAAUAUUCGCAUG [Fam3.1 aminoacylation ribozyme variant] | 1.19 | 1.08 | 1.47 | 1.19 | 0.844 | 1.14
AUUAAGCUAGGUCAUCGGGUG [Fam2.2 aminoacylation ribozyme variant] | 3.77 | 5.1 | 34.3 | 3.88 | 4.85 | 3.11
AUUCACCUAGGUCAUCGGCGG [Fam2.2 aminoacylation ribozyme variant] | 3.27 | 5.14 | 17.9 | 4.11 | 2.74 | 3.21
AUUCACCUAGGUUAUCGAGUG [Fam2.2 aminoacylation ribozyme variant] | 1.42 | 2.35 | 2.32 | 1.97 | 1.89 | 1.4
AUUCCCCUUGGUCAUCGGGUG [Fam2.2 aminoacylation ribozyme variant] | 13.7 | 27.4 | 165 | 20.4 | 18.9 | 13.4
CCACAUCUCAAGCAAUCGGUC [Fam1B.1 aminoacylation ribozyme variant] | 1.33 | 1.19 | 1.41 | 0.985 | 1.08 | 1.3
CUACUUCAAACAAUCGUCCUG [Fam1A.1 aminoacylation ribozyme variant] | 0.791 | 0.394 | 0.798 | 0.407 | 0.491 | 0.562
AUUACGCUGGUCAACGAGUGA [Fam2.1 aminoacylation ribozyme variant] | 2.71 | 3 | 5.51 | 3.33 | 3.71 | 2.42
AUUGCCCUCGUCAUCGAGUGA [Fam2.1 aminoacylation ribozyme variant] | 2.08 | 3.58 | 17.4 | 3.34 | 3.9 | 2.21
AAGGUUGCUAACAGUCGCAAG [Fam3.1 aminoacylation ribozyme variant] | 1.11 | 1.83 | 3.97 | 1.06 | 1.65 | 1.33
UUACUUCAAAGAAUCGGUCUG [Fam1A.1 aminoacylation ribozyme variant] | 1.08 | 1.57 | 2.71 | 1.24 | 2.03 | 1.34
UUACUUCAAACAAUCGGUUUG [Fam1A.1 aminoacylation ribozyme variant] | 1.24 | 1.86 | 31.5 | 1.48 | 20.3 | 1.59
AAGUUUGCUAAUCGUCGCAAU [Fam3.1 aminoacylation ribozyme variant] | 1.3 | 1.04 | 0.833 | 1.3 | 1.03 | 1.39
AUUAUCCCGGUCAUCGAGUGA [Fam2.1 aminoacylation ribozyme variant] | 4.35 | 10.6 | 61.2 | 8.46 | 11 | 4.32
AUUCAACUAGGUCAUCGGGUU [Fam2.2 aminoacylation ribozyme variant] | 1.66 | 1.95 | 4.65 | 1.91 | 1.8 | 1.5
AUUUCCCUGGUCAACGAGUGA [Fam2.1 aminoacylation ribozyme variant] | 3.91 | 6.99 | 42.4 | 6.93 | 8.23 | 3.9
AUGACCCUAGUCAUCGAGUGA [Fam2.1 aminoacylation ribozyme variant] | 3.27 | 5.61 | 26.6 | 6.07 | 7.34 | 3.13
CCACACUCCAAGCACUCGGUC [Fam1B.1 aminoacylation ribozyme variant] | 1.24 | 0.768 | 0.642 | 1.32 | 0.831 | 1.35
